Measured values: patent US7455978

Target: ω-fragment of β-galactosidase [β-galactosidase: P00722]
Assay: cell-based or functional assay

Chain of MJ1267 (LivF)/α-fragment fusion protein (Q58663 1-257, tags or fused parts left off): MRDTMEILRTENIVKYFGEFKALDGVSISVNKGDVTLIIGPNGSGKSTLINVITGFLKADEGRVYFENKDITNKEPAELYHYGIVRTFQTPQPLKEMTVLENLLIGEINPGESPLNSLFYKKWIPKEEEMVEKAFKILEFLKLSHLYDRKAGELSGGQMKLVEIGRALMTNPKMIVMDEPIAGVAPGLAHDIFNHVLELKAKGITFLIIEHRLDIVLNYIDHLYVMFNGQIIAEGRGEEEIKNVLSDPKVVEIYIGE

| Substance | β-gal activity, against the wild-type Aβ/α fusion [fold] | β-gal Activity (units/cell), ONPG hydrolysis in cell lysates [units/cell] |
| --- | --- | --- |
| Aβ (1-42) F19P/α-fragment fusion protein (from UniProt P05067 672-713; P00722 7-58) | 3 |  |
| CFTR NBD1-B/α-fragment fusion protein (from UniProt P13569 404-644; P00722 7-58) |  | 5 |
| CFTR NBD1-D/α-fragment fusion protein (from UniProt P13569 419-655; P00722 7-58) |  | 6 |
| GST/α-fragment fusion protein (from UniProt P08515 1-218; P00722 7-58) |  | 134 |
| MBP G32D/I33P/α-fragment fusion protein (from UniProt P0AEX9 27-392; P00722 7-58) |  | 14 |
| MBP G32D/α-fragment fusion protein (from UniProt P0AEX9 27-392; P00722 7-58) |  | 94 |
| MBP I33P/α-fragment fusion protein (from UniProt P0AEX9 27-392; P00722 7-58) |  | 46 |
| MBP wild-type/α-fragment fusion protein (from UniProt P0AEX9 27-392; P00722 7-58) |  | 102 |
| MJ1267 (LivF)/α-fragment fusion protein (from UniProt Q58663 1-257; P00722 7-58) |  | 12 |
| TRx/α-fragment fusion protein (from UniProt P0AA25 1-109; P00722 7-58) |  | 159 |
